The record followed here is US5180678A, “Uses of substantially pure interleukin-9 receptor” (Ludwig Institute for Cancer Research, priority 1992, dated 1993).

Experiment [1] has as its target T1, IL-9R (Mus musculus, UniProt Q01114).
T1 sequence (Q01114 38-468): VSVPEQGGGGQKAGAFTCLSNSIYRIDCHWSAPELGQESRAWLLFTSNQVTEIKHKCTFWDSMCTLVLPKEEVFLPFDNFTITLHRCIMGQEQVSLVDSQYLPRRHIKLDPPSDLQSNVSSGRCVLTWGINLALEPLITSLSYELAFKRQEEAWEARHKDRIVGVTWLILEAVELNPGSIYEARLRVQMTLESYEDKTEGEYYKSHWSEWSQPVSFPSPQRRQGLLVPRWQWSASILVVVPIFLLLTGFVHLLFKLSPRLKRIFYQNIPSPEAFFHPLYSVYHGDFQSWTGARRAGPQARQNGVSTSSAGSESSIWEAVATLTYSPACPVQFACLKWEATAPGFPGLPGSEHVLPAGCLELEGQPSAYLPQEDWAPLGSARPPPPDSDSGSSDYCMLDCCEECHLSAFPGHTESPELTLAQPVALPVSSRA
Briefly: Competitive binding of radiolabelled rIL-9 to TS1 cells (specificity of IL-9 binding). More on the design: a number of different cell types were tested for the presence of the IL-9R molecule; endogenous in cells. The conditions noted are these: labelled rIL-9 6.1×10^-10 M, 10^6 TS1 cells, 3 h 4° C., no competitor 4083 ± 16. How it is done: In order to test whether the radioactive IL-9 would bind to TS1 cells which are mouse cells, which are IL-9 dependent, a competitive assay was carried out. Specifically, rIL-9 was incubated with TS1 cells in 140 ul of DMEM containing BSA (10 mg/ml) and Na3 N (10 mM). In order to determine the level of binding, a 100 fold excess of "cold", i.e., non-radiolabelledIL-9, was also mixed with the material. The rIL-9 was admixed at 6.1×10^-10 M, for three hours at 4° C., with 10^6 TS1 cells. Bound material was separated from free ligand via centrifugation over a layer of dibutyl and dioctyl phthalate (15:I). In addition, the experiments were repeated using various interleukins, interferon-γ ("INF-γ"), tumor necrosis factor ("TNF"), and granulocyte, macrophage colony stimulating factor ("GM-CSF"). All experiments were carried out in triplicate.

Experiment [2] concerns the target T1, IL-9R. Briefly: Saturation binding of radiolabelled rIL-9 to TS-1 cells, Scatchard transformation. Also noted: endogenous in cells; host or cells: TS1 cells (mouse, IL-9 dependent). How it is done:
Experiments were performed to study the saturation binding of rIL-9. In these studies, as depicted in FIGS. 4a and 4b, increasing concentrations of radiolabelled rIL-9 were incubated with TS-1 cells (5×10^6 cells, 4° C. for three hours). This binding assay, as with those described supra. used 140 ul of DMEM containing BSA and Na3 N, also as described supra. Binding plateaued at 1 nM concentration, with half maximal saturation being reached at approximately 100 pM (FIG. 4a).

The mark [3] stands for this setting: radiolabelled rIL-9, 5×10^6 TS-1 cells, 4° C., three hours (FIG. 4a).

As for “IL-1α: interleukin tested as competitor of IL-9 binding”, the “Bound Radioactivity” value with IL-9R [1] (competitor 8.7 × 10^-8 M) came out at 4232 ± 177 cpm. As to “IL-4: interleukin tested as competitor of IL-9 binding”, in the experiment with IL-9R [1] (competitor 8.0 × 10^-8 M), the “Bound Radioactivity” value is reported as 4154 ± 156 cpm.

Regarding “IL-5: interleukin tested as competitor of IL-9 binding”, in the experiment with IL-9R [1] (competitor 2.7 × 10^-8 M), the “Bound Radioactivity” value is listed as 4642 ± 77 cpm. Regarding “IL-6: interleukin tested as competitor of IL-9 binding”, the “Bound Radioactivity” value in the experiment with IL-9R [1] (competitor 6.7 × 10^-8 M) came to 4751 ± 61 cpm.

B1: GM-CSF: granulocyte, macrophage colony stimulating factor tested as competitor of IL-9 binding (protein, UniProt P01587 18-141, looked up)
Granulocyte-macrophage …: APTRSPITVTRPWKHVEAIKEALNLLDDMPVTLNEEVEVVSNEFSFKKLTCVQTRLKIFEQGLRGNFTKLKGALNMTASYYQTYCPPTPETDCETQVTTYADFIDSLKTFLTDIPFECKKPGQK
Regarding B1, the “Bound Radioactivity” value in the experiment with IL-9R [1] (competitor 6.4 × 10^-8 M) is on record as 4682 ± 63 cpm.

B2: rIL-9: recombinant mouse IL-9 from baculovirus infected Sf9 cells, 22-25 kilodaltons; used unlabelled and 125I-labelled (protein, UniProt P15247 19-144, looked up)
Interleukin-9: QRCSTTWGIRDTNYLIENLKDDPPSKCSCSGNVTSCLCLSVPTDDCTTPCYREGLLQLTNATQKSRLLPVFHRVKRIVEVLKNITCPSFSCEKPCNQTMAGNTLSFLKSLLGTFQKTEMQRQKSRP
modifications: 125I-labelled in some uses
notes: recombinant mouse IL-9 from baculovirus infected Sf9 cells, 22-25 kilodaltons; used unlabelled and 125I-labelled
Take B2: in the experiment with IL-9R [2] (Scatchard transformation, 3 runs, TS-1 cells (FIG. 4b)), the “density of IL-9 receptor” value is 3111±565 /cell. In addition, the equilibrium dissociation constant (Kd) (as a rule, the free concentration of one partner at which half of the binding sites on the other are occupied at equilibrium, for simple one-to-one binding) with IL-9R [2] (Scatchard transformation, 3 runs, TS-1 cells, single class of receptor (FIG. 4b)) worked out at 0.103 ± 0.013 nM. In addition, in the experiment with IL-9R [2] (setting [3]), the “concentration at which binding plateaued” value is 1 nM and the half maximal saturation result is “approximately 100 pM”. For the same molecule, the “Bound Radioactivity” value in the experiment with IL-9R [1] (competitor 1.2 × 10^-9 M) was found to be 733 ± 21 cpm. For the same molecule, in the experiment with IL-9R [1] (competitor 6.1 × 10^-8 M), the “Bound Radioactivity” value came out at 80 ± 8 cpm.

B3: IFN-γ: interferon-γ tested as competitor of IL-9 binding (protein, UniProt P01579 24-161, looked up)
Interferon gamma: QDPYVKEAENLKKYFNAGHSDVADNGTLFLGILKNWKEESDRKIMQSQIVSFYFKLFKNFKDDQSIQKSVETIKEDMNVKFFNSNKKKRDDFEKLTNYSVTDLNVQRKAIHELIQVMAELSPAAKTGKRKRSQMLFRG
Consider B3, for which the “Bound Radioactivity” value with IL-9R [1] (competitor 2.4 × 10^-8 M) amounted to 4944 ± 8 cpm.
